These are literature values, as cited in US20210137911A1, “NOVEL CHRONOTHERAPY BASED ON CIRCADIAN RHYTHMS” (THE TRUSTEES OF THE UNIVERSITY OF PENNSYLVANIA, priority 2014, published 2021).

To fix the notation:
B1: Tenecteplase (protein, UniProt P00750 36-562, looked up, variant T103N N117Q K296A H297A R298A R299A)
Tissue-type plasminogen …: SYQVICRDEKTQMIYQQHQSWLRPVLRSNRVEYCWCNSGRAQCHSVPVKSCSEPRCFNGGTCQQALYFSDFVCQCPEGFAGKCCEIDTRATCYEDQGISYRGNWSTAESGAECTNWQSSALAQKPYSGRRPDAIRLGLGNHNYCRNPDRDSKPWCYVFKAGKYSSEFCSTPACSEGNSDCYFGNGSAYRGTHSLTESGASCLPWNSMILIGKVYTAQNPSAQALGLGKHNYCRNPDGDAKPWCHVLKNRRLTWEYCDVPSCSTCGLRQYSQPQFRIKGGLFADIASHPWQAAIFAAAAASPGERFLCGGILISSCWILSAAHCFQERFPPHHLTVILGRTYRVVPGEEEQKFEVEKYIVHKEFDDDTYDNDIALLQLKSDSSRCAQESSVVRTVCLPPADLQLPDWTECELSGYGKHEALSPFYSERLKEAHVRLYPSSRCTSQHLLNRTVTDNMLCAGDTRSGGPQANLHDACQGDSGGPLVCLNDGRMTLVGIISWGLGCGQKDVPGVYTKVTNYLDWIRDNMRP
B2: Idursulfase (protein, UniProt P22304 34-455; P22304 456-550, looked up)
Iduronate 2-sulfatase 42 kDa …: TDALNVLLIIVDDLRPSLGCYGDKLVRSPNIDQLASHSLLFQNAFAQQAVCAPSRVSFLTGRRPDTTRLYDFNSYWRVHAGNFSTIPQYFKENGYVTMSVGKVFHPGISSNHTDDSPYSWSFPPYHPSSEKYENTKTCRGPDGELHANLLCPVDVLDVPEGTLPDKQSTEQAIQLLEKMKTSASPFFLAVGYHKPHIPFRYPKEFQKLYPLENITLAPDPEVPDGLPPVAYNPWMDIRQREDVQALNISVPYGPIPVDFQRKIRQSYFASVSYLDTQVGRLLSALDDLQLANSTIIAFTSDHGWALGEHGEWAKYSNFDVATHVPLIFYVPGRTASLPEAGEKLFPYLDPFDSASQLMEPGRQSMDLVELVSLFPTLAGLAGLQVPPRCPVPSFHVELCREGKNLLKHFRFRDLEEDPYLPG
Iduronate 2-sulfatase 14 kDa …: NPRELIAYSQYPRPSDIPQWNSDKPSLKDIKIMGYSIRTIDYRYTVWVGFNPDEFLANFSDIHAGELYFVDSDPLQDHNMYNDSQGGDLFQLLMP
B3: Filgrastim (protein, chains of the INN, looked up)
chain: MTPLGPASSLPQSFLLKCLEQVRKIQGDGAALQEKLCATYKLCHPEELVLLGHSLGIPWAPLSSCPSQALQLAGCLSQLHSGLFLYQGLLQALEGISPELGPTLDTLQLDVADFATTIWQQMEELGMAPALQPTQGAMPAFASAFQRRAGGVLVASHLQSFLEVSYRVLRHLAQP
modifications: N-terminal methionine

The conditions of the data set: in vivo.
Consider B1, for which the “½ Life” value was 1.9 h.
For the molecule B2, the “½ Life” value was 0.733 h.
As to B3, the “½ Life” value was 3.5 h.
